The values below are quoted from earlier work in article PMC11204982.

The data set concerns the target CD20 (Homo sapiens) (UniProt P11836).
UniProt P11836, sequence (P11836 whole entry): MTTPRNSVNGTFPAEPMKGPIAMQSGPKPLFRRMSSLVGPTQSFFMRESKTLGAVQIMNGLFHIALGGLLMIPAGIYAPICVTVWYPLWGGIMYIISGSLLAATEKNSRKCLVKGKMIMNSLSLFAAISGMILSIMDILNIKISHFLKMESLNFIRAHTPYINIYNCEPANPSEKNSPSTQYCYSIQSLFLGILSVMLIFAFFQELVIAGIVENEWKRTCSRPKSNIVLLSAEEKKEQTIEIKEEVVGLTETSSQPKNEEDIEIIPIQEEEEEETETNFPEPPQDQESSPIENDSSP

For the substance rituximab, the Kd was 5.2 nM.

Broadly, the Kd is the constant that tells how readily two partners part at equilibrium.
